The text below walks through data of article PMC5481817, “Developing Targeted Hybrid Imaging Probes by Chelator Scaffolding” (Bioconjugate chemistry, 2017).

Read-outs that look alike come from different tables or passages of the source.

The format of series [1] is physicochemical. The conditions noted are these: pH 7.4. As for the experimental part:
(§1) [^68Ga]Sulfo-Cy7-FSC-MG and [^68Ga]Sulfo-Cy7-FSC-RGD (6 MBq) were diluted with phosphate buffered saline to a concentration of 1 μM. Subsequently 50 μL of this solution was added to six Eppendorf tubes containing 450 μL PBS and 500 μL octanol. The mixture was vortexed (1400 rpm) at RT for 15 min using a MS 3 basic vortexer (IKA, Staufen, Germany) followed by centrifugation for 2 min at 4500 rpm. Aliquots of 100 μL of both phases were transferred to plastic vials, measured in the γ-counter and logD values were calculated. For stability testing, radiolabeled tracers were diluted with 450 μL fresh human serum and 450 μL PBS as control to a concentration of 2 μM followed by incubation at 37 °C. After 1, 2, and 4 h (n = 3) 50 μL aliquots were precipitated with acetonitrile (1:1) and centrifuged for 2 min at 14 × 10^3 rpm. The supernatant was analyzed by radio-RP-HPLC to evaluate for decomposition and corresponding chromatograms are shown in Supporting Information. For protein binding measurement aliquots were analyzed by size exclusion chromatography using MicroSpin G-50 Columns (Sephadex G-50, GE Healthcare, Vienna, Austria) in triplicates. […] Column and eluate were measured in the γ-counter and percentages of nonprotein bound radiolabeled peptide (column) and protein bound radiotracer (eluate) were calculated.

A short description of a further series: in vitro. The format is in vitro ADME, human. As for the experimental part:
as §1

A short description of another series: physchem. The format is physicochemical. The conditions noted are these: buffer or solvent. As for the experimental part: [^68Ga]Sulfo-Cy7-FSC-MG and [^68Ga]Sulfo-Cy7-FSC-RGD (6 MBq) were diluted with phosphate buffered saline to a concentration of 1 μM. Subsequently 50 μL of this solution was added to six Eppendorf tubes containing 450 μL PBS and 500 μL octanol. The mixture was vortexed (1400 rpm) at RT for 15 min using a MS 3 basic vortexer (IKA, Staufen, Germany) followed by centrifugation for 2 min at 4500 rpm. Aliquots of 100 μL of both phases were transferred to plastic vials, measured in the γ-counter and logD values were calculated. For stability testing, radiolabeled tracers were diluted with 450 μL fresh human serum and 450 μL PBS as control to a concentration of 2 μM followed by incubation at 37 °C. After 1, 2, and 4 h (n = 3) 50 μL aliquots were precipitated with acetonitrile (1:1) and centrifuged for 2 min at 14 × 10^3 rpm. The supernatant was analyzed by radio-RP-HPLC to evaluate for decomposition and corresponding chromatograms are shown in Supporting Information. For protein binding measurement aliquots were analyzed by size exclusion chromatography using MicroSpin G-50 Columns (Sephadex G-50, GE Healthcare, Vienna, Austria) in triplicates. First, the columns were centrifuged at 750 rcf for 1 min to remove the storage buffer. After adding 25 μL of incubation solution columns were centrifuged again for 2 min with 2000 rcf. Column and eluate were measured in the γ-counter and percentages of nonprotein bound radiolabeled peptide (column) and protein bound radiotracer (eluate) were calculated.

Series [2] has as its system M21 (αvβ3 positive) cells. In words: M21 internalization assay (radioligand). It counts as cell-based, human. The conditions noted are these: for Cell uptake (internalized): M21 (αvβ3 positive); for membrane bound amount of activity: M21 cells. As for the experimental part:
(§2) Integrin αvβ3 positive (M21) and αvβ3 negative (M21-L) cells were diluted with incubation medium, i.e., corresponding growth medium containing 1% glutamine (m/v), 1% BSA (m/v), CaCl2 (1 mM), MgCl2 (1 mM), and MnCl2 (10 mM) to a concentration of 2.0 × 10^6 cells/ml. Aliquots of one milliliter were transferred to Eppendorf tubes and six technical replicates for each cell line were incubated for 1 h at 37 °C. Subsequently 50 μL of the radiolabeled ligand (1.2 nM [^68Ga]Sulfo-Cy7-FSC-RGD in PBS/0.5% BSA, approximately 2 × 10^4 cpm) were added and incubated at 37 °C for further 60 and 120 min, respectively. After incubation the tubes were centrifuged (2 min, 5000 rpm; Eppendorf Centrifuge 5424, Hamburg, Germany) and the supernatant was removed and collected. Hereafter the cells were washed twice with 1 mL ice-cold washing buffer (10 mM TRIS-buffered saline, pH 7.3) and the fractions were combined with the supernatant (wash fraction). To determine the membrane bound tracer amount cells were washed two times with 1 mL acetate buffer (20 mM, pH 4.5, 10 min at 37 °C) and the supernatant was collected. The residual cells were lysed by adding 1 mL of 2 M NaOH twice and collected in plastic vials (internalized fraction). The activity of all collected vials was measured in the γ-counter and compared to standard solution (50 μL radiotracer).

The test system of series [3] is M21-L (αvβ3 negative) cells. Kind of series: M21-L internalization assay (radioligand). The conditions noted are these: for Cell uptake (internalized): M21-L (αvβ3 negative); for unspecific membrane bound activity: M21-L cells. The format is cell-based, human. As to the method:
as §2

For series [4] the following is noted: mouse, in vivo. As to the method: (§3) All animal experiments were conducted in accordance with regulations and guidelines of the Czech Animal Protection Act (No. 246/1992), and with the approval of the Czech Ministry of Education, Youth, and Sports (MSMT-22421/2013–12), and the institutional Animal Welfare Committee of the Faculty of Medicine and Dentistry of Palacky University in Olomouc. The studies were performed using female 8–10-week-old athymic BALB/c nude mice (Envigo, Horst, The Netherlands). The number of animals was reduced as much as possible (n = 3 per group and time point for all experiments) and retro-orbital (r.o.) tracer injection as well as small animal imaging was carried out under 2% isoflurane anesthesia (FORANE, Abbott Laboratories, Abbott Park, IL, USA) to minimize animal suffering.
(§4) Tumor xenografts were established near the front shoulder of mice by subcutaneous injection of 5 × 10^6 cells (U-87 MG) or 2 × 10^6 cells (A431-CCK2R) and the same amount of A431-mock cells as a control in 200 μL appropriate medium and Matrigel (1:1). The tumors were allowed to grow until they had reached a volume of 0.2 to 0.5 cm^3. To evaluate ex vivo biodistribution mice were injected with 1–2 MBq (0.05–0.14 nmol) of radiotracer per mouse and mice were sacrificed by cervical dislocation after 30 and 90 min for [^68Ga]Sulfo-Cy7-FSC-RGD and after 1 and 2 h in the case of [^68Ga]Sulfo-Cy7-FSC-MG. Tumors, blood, muscle tissue, and organs were extracted, weighed, and activity uptake of the samples was measured in the gamma counter. Results were expressed as percentage of injected dose per gram tissue (% ID/g). In vivo PET and CT images were acquired with an Albira PET/SPECT/CT small animal imaging system (Bruker Biospin Corporation, Wood-bridge, CT, USA). Xenograft bearing mice were injected with radiolabeled peptides in a dose of ~5 MBq corresponding to 1–2 μg (0.25–0.58 nmol) of peptide per mouse. Anaesthetized animals were positioned prone head first in the Albira system before the start of imaging. Static PET/CT imaging was carried out 30 and 90 min p.i. for [^68Ga]Sulfo-Cy7-FSC-RGD. Animals injected with [^68Ga]Sulfo-Cy7-FSC-MG were imaged 1 and 2 h p.i. A 10 min PET scan (axial FOV 148 mm) was performed, followed by a CT scan (axial FOV 65 mm, 45 kVp, 400 μA, at 400 projections). Scans were reconstructed with the Albira software (Bruker Biospin Corporation, Woodbridge, CT, USA) using the maximum likelihood expectation maximization (MLEM) and filtered backprojection (FBP) algorithms. After reconstruction, acquired data was viewed and analyzed with PMOD software (PMOD Technologies Ltd., Zurich, Switzerland). 3D images were obtained using VolView software (Kitware, Clifton Park, NY, USA). Near-infrared in vivo fluorescence imaging was performed with an In-Vivo MS FX PRO small animal imaging system (Bruker Biospin Corporation, Woodbridge, CT, USA). Sulfo-Cy7-FSC-MG and Sulfo-Cy7-FSC-RGD were injected in a dose of 0.25–0.58 nmol per mouse and after supine head first positioning, imaging was conducted in various time intervals up to 72 h p.i. An appropriate filter set (excitation = 730 nm and emission = 790 nm) was used for acquiring the Sulfo-Cy7-FSC-peptide - fluorescence in vivo. Identical illumination settings (acquisition time = 15 s, filters = 730/790 nm, f-stop = 2.8, field of view = 100 mm, and binning = 4 × 4) were used for acquiring all images, and fluorescence emission was normalized to photons/s/mm^2. Images were acquired and analyzed using Bruker MI SE software (Bruker Biospin Corporation, Woodbridge, CT, USA).

The test system of series [5] is U-87MG (αvβ3 positive) xenograft bearing mice. Conditions: mouse, in vivo, 1.5 h. As to the method:
as §3, §4

In series [6] the test system is mice bearing U-87MG tumor xenografts. Kind of series: Static micro-PET/CT imaging, U-87MG xenografts. The conditions noted are these: static PET, 30 and 90 min p.i. It counts as in vivo, mouse. As for the experimental part:
All animal experiments were conducted in accordance with regulations and guidelines of the Czech Animal Protection Act (No. 246/1992), and with the approval of the Czech Ministry of Education, Youth, and Sports (MSMT-22421/2013–12), and the institutional Animal Welfare Committee of the Faculty of Medicine and Dentistry of Palacky University in Olomouc. The studies were performed using female 8–10-week-old athymic BALB/c nude mice (Envigo, Horst, The Netherlands). […]
Tumor xenografts were established near the front shoulder of mice by subcutaneous injection of 5 × 10^6 cells (U-87 MG) or 2 × 10^6 cells (A431-CCK2R) and the same amount of A431-mock cells as a control in 200 μL appropriate medium and Matrigel (1:1). […] Tumors, blood, muscle tissue, and organs were extracted, weighed, and activity uptake of the samples was measured in the gamma counter. Results were expressed as percentage of injected dose per gram tissue (% ID/g). […] After reconstruction, acquired data was viewed and analyzed with PMOD software (PMOD Technologies Ltd., Zurich, Switzerland). […] Near-infrared in vivo fluorescence imaging was performed with an In-Vivo MS FX PRO small animal imaging system (Bruker Biospin Corporation, Woodbridge, CT, USA). […] An appropriate filter set (excitation = 730 nm and emission = 790 nm) was used for acquiring the Sulfo-Cy7-FSC-peptide - fluorescence in vivo. […]

[7] abbreviates: 87 mg, accumulation in tumor tissue.

The compound `C/C1=C/C(=O)N(O)CCC[C@H](NC(=O)CCN2C(=O)CC(SCCOCCOCCOCCOCCC(=O)NCCCC[C@@H]3NC(=O)[C@@H](Cc4ccccc4)NC(=O)[C@H](CC(=O)O)NC(=O)CNC(=O)[C@H](CCCNC(=N)N)NC3=O)C2=O)C(=O)OCC/C(C)=C\C(=O)N(O)CCC[C@H](NC(=O)CCN2C(=O)CC(SCCOCCOCCOCCOCCC(=O)NCCCC[C@@H]3NC(=O)[C@@H](Cc4ccccc4)NC(=O)[C@H](CC(=O)O)NC(=O)CNC(=O)[C@H](CCCNC(=N)N)NC3=O)C2=O)C(=O)OCC/C(C)=C\C(=O)N(O)CCC[C@H](NC(=O)CCCCC[N+]2=C(C=CC3=CC(=CC=C4N(C)c5ccc(S(=O)(=O)[O-])cc5C4(C)C)CCC3)C(C)(C)c3cc(S(=O)(=O)O)ccc32)C(=O)OCC1` (stereo partly drawn) [[^68Ga]Sulfo-Cy7-FSC-RGD, metal not drawn] yielded a logD in series [1] of -2.3 ± 0.16. Also, in the series “in vitro”, the “Binding to serum proteins” value is reported as “approximately 20%”. In addition, in the series “physchem”, the amount remaining at 1 h, 2 μM stood at 95.7 ± 0.1%; the share remaining at 2 h, 2 μM worked out at 94.7 ± 0.6%; the fraction remaining at 4 h, 2 μM was determined as 94.4 ± 0.3%. For the same compound, in series [2] (1 h), the “Cell uptake (internalized)” value was determined as 2.45 ± 0.36% and the “membrane bound amount of activity” value is recorded as 1.09 ± 0.23%. For the same compound, in series [2] (2 h), the “Cell uptake (internalized)” value is recorded as 4.41 ± 1.17% and the “membrane bound amount of activity” value was 1.79 ± 0.59%. Besides, in series [3] (1 h), the “Cell uptake (internalized)” value was determined as 0.43 ± 0.25% and the “unspecific membrane bound activity” value was 0.29 ± 0.12%. Also, in series [3] (2 h), the “Cell uptake (internalized)” value is 0.71 ± 0.66% and the “unspecific membrane bound activity” value is given as 0.80 ± 0.62%. For the same compound, the “cell uptake on αvβ3 negative cells relative to αvβ3 positive cells (reduced to)” value in series [3] (M21-L vs M21, 1 and 2 h) was “approximately 1/6”. Further, in series [4] (setting [7]), the tissue uptake at 0.5 h worked out at 10.1 ± 0.8 %ID/g and the tissue uptake at 1.5 h came to 7.5 ± 0.8 %ID/g. Also, in series [4] (blood), the tissue uptake at 0.5 h was 4 ± 0.4 %ID/g and the tissue uptake at 1.5 h was 1.3 ± 0.2 %ID/g. In series [4] (kidney retention), the tissue uptake at 1.5 h stood at 54.8 ± 1.1 %ID/g. In series [5], the kidney retention came to 57.3 ± 4.6 % ID/g. Moreover, the PET tumor visualization entry in series [6] is “tumor was visualized clearly”.

As a reminder, the logD is the decadic logarithm of the distribution of all forms, ionised or not, between an organic phase and buffer at a given pH. High values mean a more lipophilic compound, low ones a more hydrophilic compound. As usually defined, the fraction remaining is the share of the starting amount still present when the sample was taken. Low values mean a greater loss, high ones greater stability. By tissue uptake is commonly meant the share of the injected amount in each gram of the tissue.
